From paper PMC5987717 come the findings set out here.

Experiment in all cases: FRET or BRET
Assay [1] addresses hRIβ-Rluc8 (PKA regulatory subunit RIβ conjugated to mutant Renilla luciferase) (human) (UniProt P31321).
Assay [2] has as its target hRIIα-RLuc8 (PKA regulatory subunit RIIα conjugated to mutant Renilla luciferase) (human) (UniProt P13861).
The target in assay [3] is hRIIβ-RLuc8 (PKA regulatory subunit RIIβ conjugated to mutant Renilla luciferase) (human) (UniProt P31323).
hRIIβ-RLuc8 (PKA regulatory subunit RIIβ conjugated to mutant Renilla luciferase) (human), sequence (P31323 whole entry, change not shown): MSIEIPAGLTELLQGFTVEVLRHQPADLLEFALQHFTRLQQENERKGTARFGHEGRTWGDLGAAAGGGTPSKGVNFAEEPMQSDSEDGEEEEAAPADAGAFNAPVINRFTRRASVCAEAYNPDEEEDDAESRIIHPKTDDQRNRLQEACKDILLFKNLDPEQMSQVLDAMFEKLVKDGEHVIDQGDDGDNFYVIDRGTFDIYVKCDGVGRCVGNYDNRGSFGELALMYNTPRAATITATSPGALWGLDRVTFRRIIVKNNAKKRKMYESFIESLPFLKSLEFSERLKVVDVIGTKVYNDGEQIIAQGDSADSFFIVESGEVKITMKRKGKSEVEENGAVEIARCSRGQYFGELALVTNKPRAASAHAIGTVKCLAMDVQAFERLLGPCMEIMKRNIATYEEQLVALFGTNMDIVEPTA

hRIβ-Rluc8 (PKA regulatory subunit RIβ conjugated to mutant Renilla luciferase) (human), sequence (P31321 whole entry, change not shown): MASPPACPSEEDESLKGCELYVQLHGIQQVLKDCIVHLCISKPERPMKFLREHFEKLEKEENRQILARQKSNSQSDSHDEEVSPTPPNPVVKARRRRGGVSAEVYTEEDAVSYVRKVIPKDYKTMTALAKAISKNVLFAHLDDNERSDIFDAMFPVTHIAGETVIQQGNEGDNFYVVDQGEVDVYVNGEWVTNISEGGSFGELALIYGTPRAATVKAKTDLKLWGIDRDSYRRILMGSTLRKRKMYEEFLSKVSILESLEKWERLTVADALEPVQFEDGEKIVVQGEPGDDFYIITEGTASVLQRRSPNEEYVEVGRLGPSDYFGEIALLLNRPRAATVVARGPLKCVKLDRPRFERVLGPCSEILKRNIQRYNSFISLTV
hRIIα-RLuc8 (PKA regulatory subunit RIIα conjugated to mutant Renilla luciferase) (human), sequence (P13861 whole entry, change not shown): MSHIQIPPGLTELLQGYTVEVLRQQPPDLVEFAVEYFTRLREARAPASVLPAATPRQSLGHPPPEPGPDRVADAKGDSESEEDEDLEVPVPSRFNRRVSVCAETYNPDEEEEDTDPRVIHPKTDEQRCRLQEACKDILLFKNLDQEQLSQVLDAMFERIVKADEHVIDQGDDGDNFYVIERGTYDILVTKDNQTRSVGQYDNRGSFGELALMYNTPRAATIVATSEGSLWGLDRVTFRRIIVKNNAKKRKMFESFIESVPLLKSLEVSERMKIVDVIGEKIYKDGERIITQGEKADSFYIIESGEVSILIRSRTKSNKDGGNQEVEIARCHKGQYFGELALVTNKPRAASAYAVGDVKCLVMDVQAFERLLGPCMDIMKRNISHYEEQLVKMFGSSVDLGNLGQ

Turning to “GFP-hCα (GFP-tagged PKA catalytic subunit Cα) (from UniProt P17612 1-351) (natural protein)”, the BRET signal left after Fsk/IBMX (percent of the unstimulated sensor) turned out to be 75% in assay [1], 25% in assay [2] and 28% in assay [3].
